Measured values as given in patent publication US20040005550A1, “Methods and compositions useful for targeting activated vitronectin receptor alphavbeta3” (The Scripps Research Institute, priority 1998, published 2004).

Molecular target: T1, αvβ3 expressed in CHO cells (Homo sapiens, UniProt P05106+P06756)
T1 construct: cDNAs encoding full-length human αv and β3 were subcloned into pcDNA3 and pCDM8; expressed in transfected cells
Assay: Flow cytometry ligand binding to αvβ3-CHO cells
Conditions: in presence of antibody AP5; 2 mM RGDS, 50 μM cRGDfV, 1 μM Integrilin, 100 μg/ml LM609
Experimental: Binding of aPB, WOW-1 Fab and FITC-fibrinogen to cells was assessed by flow cytometry. Typically, cells were cultured overnight in low serum medium (e.g., 0.5% fetal bovine serum), resuspended in incubation buffer at 1-1.5×10^7 cells/ml, and 4-6×10^5 cells were incubated with one of these ligands for 30 min at room temperature in a final volume of 50 μl. […] In some experiments, ligand binding and αvβ3 expression were measured simultaneously by incubation of cells with ligands in the presence of biotin-SSA6 (7 μg/ml), a non-function-blocking anti-β3 monoclonal antibody (Abrams, C., Deng, J., Steiner, B., and Shattil, S. J. (1994) J. Biol. Chem. 269, 18781-18788). After 30 min at room temperature, cells were washed and incubated with phycoerythrin-streptavidin (1:25 final dilution; Molecular Probes) for 20 min on ice. In the case of WOW-1 Fab, an Alexa-conjugated anti-(His)6 monoclonal antibody (Accurate Chemical and Scientific Corp., Westbury, N.Y.) was added at this stage (50 μg/ml). Cells were washed and resuspended in 0.5 ml incubation buffer containing 2 μg/ml propidium iodide (Sigma, St. Louis, Mo.). Ligand binding (FL1 channel) was analyzed immediately on the gated subset of live cells (propidium iodide-negative, FL3) that was strongly positive for αvβ3 expression (FL2). […]

T1 sequence (P06756 31-889 limits assumed): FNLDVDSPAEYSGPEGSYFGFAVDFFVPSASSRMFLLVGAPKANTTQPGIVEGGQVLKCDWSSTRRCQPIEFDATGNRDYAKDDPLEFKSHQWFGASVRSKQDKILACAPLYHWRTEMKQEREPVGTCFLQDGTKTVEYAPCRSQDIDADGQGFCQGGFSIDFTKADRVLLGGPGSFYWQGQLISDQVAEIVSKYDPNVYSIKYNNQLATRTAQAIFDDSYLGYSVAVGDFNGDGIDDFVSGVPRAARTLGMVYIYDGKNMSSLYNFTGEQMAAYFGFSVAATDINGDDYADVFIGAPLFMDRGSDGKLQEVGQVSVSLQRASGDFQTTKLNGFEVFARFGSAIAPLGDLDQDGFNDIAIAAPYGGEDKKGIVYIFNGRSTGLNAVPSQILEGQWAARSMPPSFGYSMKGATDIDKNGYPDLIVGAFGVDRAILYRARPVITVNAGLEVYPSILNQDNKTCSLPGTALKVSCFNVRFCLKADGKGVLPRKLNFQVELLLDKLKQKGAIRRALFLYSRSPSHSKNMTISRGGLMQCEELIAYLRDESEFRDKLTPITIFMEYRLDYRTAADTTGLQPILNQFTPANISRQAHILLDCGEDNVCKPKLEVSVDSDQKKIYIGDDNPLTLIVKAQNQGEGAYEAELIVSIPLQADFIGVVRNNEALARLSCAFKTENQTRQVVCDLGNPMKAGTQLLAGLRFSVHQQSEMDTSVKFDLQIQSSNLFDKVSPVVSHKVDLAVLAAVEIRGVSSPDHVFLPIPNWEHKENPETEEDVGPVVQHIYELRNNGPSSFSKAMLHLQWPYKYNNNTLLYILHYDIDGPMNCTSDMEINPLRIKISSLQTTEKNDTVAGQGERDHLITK
T1 sequence (P06756 891-1048 partner limits assumed): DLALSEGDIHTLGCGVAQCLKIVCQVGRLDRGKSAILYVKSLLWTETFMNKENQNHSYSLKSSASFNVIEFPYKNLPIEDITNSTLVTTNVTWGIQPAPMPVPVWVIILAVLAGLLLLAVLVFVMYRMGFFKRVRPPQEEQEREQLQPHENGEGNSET
T1 sequence (P05106 27-788): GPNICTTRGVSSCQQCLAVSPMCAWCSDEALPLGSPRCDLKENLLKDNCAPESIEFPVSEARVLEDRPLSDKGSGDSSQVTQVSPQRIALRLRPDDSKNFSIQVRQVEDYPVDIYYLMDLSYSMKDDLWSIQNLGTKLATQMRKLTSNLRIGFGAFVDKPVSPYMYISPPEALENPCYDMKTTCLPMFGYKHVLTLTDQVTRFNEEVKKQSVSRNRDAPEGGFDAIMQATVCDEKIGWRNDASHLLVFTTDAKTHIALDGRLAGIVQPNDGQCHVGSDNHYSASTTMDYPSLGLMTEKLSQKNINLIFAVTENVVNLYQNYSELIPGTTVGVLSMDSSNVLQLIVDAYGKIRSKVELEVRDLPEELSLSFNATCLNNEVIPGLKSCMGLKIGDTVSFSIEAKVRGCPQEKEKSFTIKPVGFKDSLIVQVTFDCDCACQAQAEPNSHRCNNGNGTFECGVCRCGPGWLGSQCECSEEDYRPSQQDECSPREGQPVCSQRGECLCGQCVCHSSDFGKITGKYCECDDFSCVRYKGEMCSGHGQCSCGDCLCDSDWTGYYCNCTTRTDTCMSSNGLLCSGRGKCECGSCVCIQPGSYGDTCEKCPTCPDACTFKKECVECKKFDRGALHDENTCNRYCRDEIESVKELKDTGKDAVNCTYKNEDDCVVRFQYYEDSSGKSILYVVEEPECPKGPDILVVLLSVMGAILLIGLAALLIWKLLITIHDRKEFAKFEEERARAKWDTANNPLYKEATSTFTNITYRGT

B1: LM609: αvβ3-specific function-blocking monoclonal antibody (antibody, V domains shown)
VH: EVQLEESGGGLVKPGGSLKLSCAASGFAFSSYDMSWVRQIPEKRLEWVAKVSSGGGSTYYLDTVQGRFTISRDNAKNTLYLQMSSLNSEDTAMYYCARHNYGSFAYWGQGTLVTVSA
VL: ELVMTQTPATLSVTPGDSVSLSCRASQSISNHLHWYQQKSHESPRLLIKYASQSISGIPSRFSGSGSGTDFTLSINSVETEDFGMYFCQQSNSWPHTFGGGTKLEIKRA
With B1 the “inhibition of aPB and WOW-1 Fab binding” value was “more than 70%”.
